# Where a chain is given by its changes, count along the chain named.
# B1: ERR1-301 (mAb027) IgG with C-terminal sortase and Strep tags (antibody, V domains shown)
# VH: QEQLEESGGGLVTPGGSLTLTCTASGFTISTYHMSWVRQAPGKGLEWIGSIYAGSGSTYYASWVNGRFTISSNTTQNTVSLQMNSLTVADTATYFCARDHPSYGMDLWGPGTLVTVSS
# VL: SYELTQLPSVSVSLGQTARITCGGNSIGSKAVNWYQQKPGLAPGLLIYDDDERPSGVPDRFSASNSGDTATLTISGAQAEDEADYYCQLWDSSAVAYVFGGGTQLTVTG
# notes: Human IgG1 constant regions
# B2: ERR1-324 (mAb034) IgG with C-terminal sortase and Strep tags (antibody, V domains shown)
# VH: QSLEESGGGLVQPGESLTLTCTVSGFSLSRNGMTWVRQAPGKGLEWIGIITSSGDKYYATWAKGRFTISKTSSTTVDLKMTSLTTEDTATYFCARGTVSSDIWGPGTLVTISS
# VL: ELVLTQTPSPVSAAVGGTVTINCQASQSVYGNNELAWYQQKPGQPPKLLIYRASILTSGVPSRFKGSGSGTQFTLTISNVQREDAATYYCLGGYVSQSYRAAFGGGTELEIL
# notes: Human IgG1 constant regions, kappa light chain
# B3: ERR1-TOP4 chimeric rabbit/human Fab (Fab, V domains shown)
# VH: QSVEESGGRLVTPGTPLTLTCTASGIDLSRYAVNWVRQAPGKGLEWIGVISGSGTTYYASWAKGRFTISKTSTTVDLKITSPTTEDTATYFCARGWATDGIFDYDDTFNLWGPGTLVTVSS
# VL: SYELTQLPSVSVSLGQTARITCGGDSIESKAVHWYQQKPGLAPGLLVYNDDERPSGVPDRFSGSNSGDTATLTISGAQAGDEADYYCQLWDGSAYVFGGGTQLTVTG
# notes: Chimeric rabbit/human Fab with His tag, expressed in E. coli (pET11a); lambda light chain
# B4: HuXBR1-402(3)-G5-PNU (Adc456) (other)
# VH: QVQLRESGPGLVKPSETLSLTCTVSGFDISSYYMSWVRQPPGKGLEWIGAIGISGNAYYASWAKSRVTISRDTSKNQFSLKLSSVTAADTAVYYCARDHPTYGMDLWGPGTLVTVSS
# VL: SYELTQPLSVSVALGQTARITCEGNNIGSKAVHWYQQKPGQAPVLVIYDDDERPSGIPERFSGSNSGNTATLTISRAQAGDEADYYCQVWDSSAYVFGGGTKLTVLG
# modifications: Gly5-EDA-PNU joined by sortase to the C-terminal G5SLPETG tag of the full light chain; Gly5-EDA-PNU joined by sortase to the C-terminal LPETG tag of the full heavy chain
# B5: HuXBR1-402(19)-G5-PNU (Adc460) (other)
# VH: B4 VH with R5Q, K43N
# VL: B4 VL with L8P, L14P, Q16K, A77V, Q78E
# modifications: Gly5-EDA-PNU joined by sortase to the C-terminal G5SLPETG tag of the full light chain; Gly5-EDA-PNU joined by sortase to the C-terminal LPETG tag of the full heavy chain
# B6: HuXBR1-402(15)-G5-PNU (Adc458) (other)
# VH: B4 VH with R5Q
# VL: B4 VL with L8P, L14P, Q16K, A77V, Q78E
# modifications: Gly5-EDA-PNU joined by sortase to the C-terminal G5SLPETG tag of the full light chain; Gly5-EDA-PNU joined by sortase to the C-terminal LPETG tag of the full heavy chain
# B7: HuXBR1-402(17)-G5-PNU (Adc459) (other)
# VH: B4 VH
# VL: B4 VL with L8P, L14P, Q16K, A77V, Q78E
# modifications: Gly5-EDA-PNU joined by sortase to the C-terminal G5SLPETG tag of the full light chain; Gly5-EDA-PNU joined by sortase to the C-terminal LPETG tag of the full heavy chain
# B8: HuXBR1-402(8)-G5-PNU (Adc457) (other)
# VH: B4 VH with R5Q
# VL: SYELTQPPSVSVSPGQTAIITCEGNNIGSKAVHWYQQKPGLSPVLVIYDDDERPSGIPERFSGSNSGNTATLTVSGTQDMDEADYYCQVWDSSAYVFGGGTKLTVLG
# modifications: Gly5-EDA-PNU joined by sortase to the C-terminal G5SLPETG tag of the full light chain; Gly5-EDA-PNU joined by sortase to the C-terminal LPETG tag of the full heavy chain
# B9: HuXBR1-402(26)-G5-PNU (Adc461) (other)
# VH: B4 VH with R5Q, K43N
# VL: B4 VL with Q41L, K102Q
# modifications: Gly5-EDA-PNU joined by sortase to the C-terminal G5SLPETG tag of the full light chain; Gly5-EDA-PNU joined by sortase to the C-terminal LPETG tag of the full heavy chain
# B10: ERR1-306 (mAb033) IgG with C-terminal sortase and Strep tags (antibody, V domains shown)
# VH: QEQLKESGGGLVQPGGSLKLSCKASGFDLSNYGVSWVRQAPGKGLEWIGYIDPTFDYTYYASWVNGRFSISRENTQNTVSLQINSLTPADTATYFCARWVYGVDDYGDGNWLDLWGQGTLVTISS
# VL: QFVLTQSPSVSAALGASAKLTCTLSSAHKTYTIDWYQQQQGEAPRYLMELKSDGSYTKGTGVPDRFSGSSSGADRYLIIPSVQADDEADYYCGTDYSGGYVFGGGTQLTVTG
# notes: Human IgG1 constant regions
# How the values were obtained:
# [1] = biological target: T1, twin strep-tagged human ROR2 extracellular domain (human, UniProt Q01974 34-403); assay: ELISA on coated twin-strep tagged human ROR2; anti-human Fcγ F(ab')2-HRP; absorbance 490 nm
# T1 construct: extracellular domain; Expressed in HEK293T; also called ROR2-ECD-TwinStrep
# T1 sequence (Q01974 34-403): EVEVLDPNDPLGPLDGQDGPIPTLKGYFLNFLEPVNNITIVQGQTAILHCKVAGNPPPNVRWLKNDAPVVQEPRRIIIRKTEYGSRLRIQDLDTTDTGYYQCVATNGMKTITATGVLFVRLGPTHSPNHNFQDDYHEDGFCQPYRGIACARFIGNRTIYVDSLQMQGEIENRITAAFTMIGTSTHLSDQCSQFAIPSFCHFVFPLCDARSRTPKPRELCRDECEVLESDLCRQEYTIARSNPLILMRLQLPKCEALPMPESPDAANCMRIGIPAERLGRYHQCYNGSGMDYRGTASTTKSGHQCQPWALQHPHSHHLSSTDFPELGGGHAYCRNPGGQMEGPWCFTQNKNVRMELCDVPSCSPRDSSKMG
# Description: Each well of a 96-well plate was coated with 100 μL of 2 μg/mL strep-tagged human ROR1 (from Example 5) in 0.1 M bicarbonate coating buffer (pH 9.6), and incubated for 12 h at 4° C. A second 96-well plate was likewise prepared with twin-strep tagged human ROR2 (from Example 5).
# HRP-conjugated F(ab′)₂ anti-human FC-gamma (Jackson Immunoresearch, 109-036-008) was then added at a 1:20′000 dilution, 100 μl per well, and incubated for 1 h at 37° C. prior to detection using an Spark 10M plate reader (Tecan).
# hROR2 = biological target: T2, hROR2 (human, UniProt Q01974); assay: flow cytometry on 63-12 / hROR2 cells; anti-His Alexa Fluor 488
# T2 construct: full length, on the cell surface; also called 63-12 / hROR2; ROR2 on T47D cells
# T2 sequence (Q01974 34-943 limits assumed): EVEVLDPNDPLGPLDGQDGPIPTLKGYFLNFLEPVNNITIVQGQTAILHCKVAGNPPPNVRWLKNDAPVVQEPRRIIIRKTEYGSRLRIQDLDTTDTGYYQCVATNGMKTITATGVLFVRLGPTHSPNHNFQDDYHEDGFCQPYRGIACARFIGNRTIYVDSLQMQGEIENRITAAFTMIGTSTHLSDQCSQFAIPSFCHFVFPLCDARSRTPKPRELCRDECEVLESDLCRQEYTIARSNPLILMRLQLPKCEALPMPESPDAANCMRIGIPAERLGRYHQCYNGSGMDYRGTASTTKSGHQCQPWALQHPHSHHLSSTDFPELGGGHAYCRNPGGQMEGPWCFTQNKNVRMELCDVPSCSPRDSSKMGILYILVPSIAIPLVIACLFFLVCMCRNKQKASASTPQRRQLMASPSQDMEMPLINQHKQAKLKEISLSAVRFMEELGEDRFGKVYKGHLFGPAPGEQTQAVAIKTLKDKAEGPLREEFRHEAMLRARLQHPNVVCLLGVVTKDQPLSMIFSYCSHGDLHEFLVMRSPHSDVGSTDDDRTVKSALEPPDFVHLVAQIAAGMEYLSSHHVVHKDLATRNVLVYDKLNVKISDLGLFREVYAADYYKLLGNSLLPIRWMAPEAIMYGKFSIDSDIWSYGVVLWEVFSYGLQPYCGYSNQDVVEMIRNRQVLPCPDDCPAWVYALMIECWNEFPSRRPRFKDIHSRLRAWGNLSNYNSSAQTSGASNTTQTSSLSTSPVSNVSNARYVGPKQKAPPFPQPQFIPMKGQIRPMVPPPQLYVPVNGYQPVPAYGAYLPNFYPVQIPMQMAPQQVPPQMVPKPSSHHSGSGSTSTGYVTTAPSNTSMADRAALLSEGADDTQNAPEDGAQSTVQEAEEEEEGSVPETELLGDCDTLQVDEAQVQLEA
# Description: Flow cytometry: Cells were stained using standard flow cytometry methodology. Briefly, for purified anti-ROR1 Fab (FIG. 3), 0.1-1×10⁶ cells were stained with 1000 ng/100 μL of Fab on ice for 1 h. After washing twice with ice-cold flow cytometry buffer (PBS containing 1% (v/v) BSA, 0.1% sodium azide and 1 mM EDTA), the cells were incubated with a 1:1000 dilution of a mouse anti-His tag mAb conjugated to Alexa Fluor 488 (Qiagen) in 100 μL flow cytometry buffer on ice for 30 min. For purified anti-ROR1 IgG1 (FIG. 8), 0.1-1×10⁶ cells were blocked by 4% goat serum for 15 min at room temperature and then incubated with 100 ng/100 μL of IgG on ice for 1 h. After washing twice with ice-cold flow cytometry buffer, cells were stained with a 1:500 dilution of goat anti-human IgG, Fcγ pAbs conjugated to APC (Jackson ImmunoResearch) in 100 μL flow cytometry buffer on ice for 30 min. For commercial goat anti human ROR1 polyclonal antibody (FIG. 8), 0.1-1×10⁶ cells were stained with 200 ng/100 μL of Ab on ice for 1 h. […] Finally, 4′,6-diamidino-2-phenylindole (DAPI) was added to a final concentration of 100 ng/mL to exclude dead cells from the analysis. Cells were analyzed using a FACSCalibur instrument (BD Biosciences) and FlowJo analytical software (Tree Star, Ashland, Oreg.).
# [2] = biological target: T3, hFc-mROR1 (extracellular domain of mouse ROR1 fused to the Fc domain of human IgG1) (human; mouse, UniProt Q9Z139 30-406); assay: ELISA; hFc fusion captured by coated anti-human IgG1 Fc; anti-His-HRP; A405
# T3 construct: extracellular domain; not shown: Fc domain of human IgG1
# T3 sequence (Q9Z139 30-406): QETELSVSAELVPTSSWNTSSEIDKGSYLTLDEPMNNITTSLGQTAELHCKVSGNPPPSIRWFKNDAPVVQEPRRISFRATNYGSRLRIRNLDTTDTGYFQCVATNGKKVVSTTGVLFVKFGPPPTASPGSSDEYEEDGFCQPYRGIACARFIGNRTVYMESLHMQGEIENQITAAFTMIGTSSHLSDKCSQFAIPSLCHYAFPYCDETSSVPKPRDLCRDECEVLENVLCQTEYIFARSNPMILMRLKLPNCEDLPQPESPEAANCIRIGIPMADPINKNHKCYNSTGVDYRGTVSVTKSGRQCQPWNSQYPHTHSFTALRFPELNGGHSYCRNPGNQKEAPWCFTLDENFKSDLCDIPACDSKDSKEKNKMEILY
# Description: (§1) The binding of each chimeric rabbit/human Fab to hROR1 and mROR1 fused with human IgG1 Fc (hFc-hROR1 and hFc-mROR1) was analyzed by ELISA. hFc-ROR1 or hFc-mROR1 were captured by anti-human IgG1 Fc antibody immobilized on plate and then incubated with hROR1 specific Fabs comprising a His-tag via detection with mouse anti-His tag.
# (§2) ELISA: For ELISA (FIG. 2), each well of a 96-well Costar 3690 plate (Corning, Corning, N.Y.) was coated with 100 ng anti-human IgG1 Fc in 25 μL coating buffer (0.1 M Na₂CO₃, 0.1 M NaHCO₃, pH 9.6) for 1 h at 37° C. After blocking with 150 μL 3% (w/v) BSA/TBS for 1 h at 37° C., hFc-hROR1 or hFc-mROR1 was captured following incubation at 100 ng/50 μL for 1 h at 37° C. Then 100 ng/50 μL of Fab was applied in each well at 37° C. 2 h later, 50 μL of a 1:1000 dilution of a mouse anti-His tag mAb conjugated to horse radish peroxidase (HRP) (R&D Systems, Minneapolis, Minn.) in 1% (w/v) BSA/TBS was used to detect the Fab. To determine the epitopes (FIG. 4), hFc fusion proteins containing different domains of hROR1 were coated directly, followed by incubation with Fab before detection by mouse anti-His tag mAb conjugated to HRP. Washing with PBS was repeated and colorimetric detection was performed using 2,2′-azino-bis(3-ethylbenzthiazoline)-6-sulfonic acid (Roche) as substrate according to the manufacturer's directions. The absorbance was measured at 405 nm using a SpectraMax M5 microplate reader (Molecular Devices; Sunnyvale, Calif.) and SoftMax Pro software (Molecular Devices).
# Ig = biological target: T4, Ig (human, UniProt Q01973); assay: ELISA on directly coated hFc fusion proteins of hROR1 domains; anti-His-HRP; A405
# T4 construct: Ig domain of the extracellular domain; also called hFc-hROR1-Ig
# T4 sequence (Q01973 42-147 limits assumed): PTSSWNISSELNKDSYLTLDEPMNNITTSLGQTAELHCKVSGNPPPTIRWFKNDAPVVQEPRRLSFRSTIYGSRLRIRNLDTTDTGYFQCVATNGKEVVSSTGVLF
# Description: as §2
# Fr = biological target: T5, Fr; assay: as above
# T5 construct: also called hFc-hROR1-Fr
# T5 sequence (chain, as listed by the source limits assumed): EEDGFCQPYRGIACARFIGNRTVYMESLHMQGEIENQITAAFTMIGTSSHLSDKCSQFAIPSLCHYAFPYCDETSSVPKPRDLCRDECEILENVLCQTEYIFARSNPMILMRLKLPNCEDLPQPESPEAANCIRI
# Description: as §2
# Kr = biological target: T6, Kr (human, UniProt Q01973); assay: as above
# T6 construct: Kringle domain of the extracellular domain; also called hFc-hROR1-Kr
# T6 sequence (Q01973 312-391 limits assumed): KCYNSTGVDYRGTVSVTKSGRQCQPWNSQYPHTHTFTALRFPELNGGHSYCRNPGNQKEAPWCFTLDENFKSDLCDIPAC
# Description: as §2
# Fr + Ki = biological target: T7, Fr + Ki (human, UniProt Q01973); assay: as above
# T7 construct: Frizzled and Kringle domains of the extracellular domain; also called hFc-hROR1-Fr-Ki
# T7 sequence (Q01973 165-391 limits assumed): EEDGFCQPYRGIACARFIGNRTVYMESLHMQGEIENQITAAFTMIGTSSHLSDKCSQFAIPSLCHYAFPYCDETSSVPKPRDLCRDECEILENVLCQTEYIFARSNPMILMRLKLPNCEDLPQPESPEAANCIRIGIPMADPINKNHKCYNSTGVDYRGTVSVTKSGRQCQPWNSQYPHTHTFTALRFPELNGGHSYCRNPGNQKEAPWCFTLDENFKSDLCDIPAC
# Description: as §2
# [3] = biological target: T8, hFc-hROR1 (extracellular domain of human ROR1 fused to the Fc domain of human IgG1) (human, UniProt Q01973 30-406); assay: SPR (Biacore X100); hFc-hROR1 captured by anti-human Fcγ antibody on CM5; Fab as analyte; 1:1 Langmuir fit
# T8 construct: extracellular domain; also called hFc-ROR1; not shown: Fc domain of human IgG1
# T8 sequence (Q01973 30-406): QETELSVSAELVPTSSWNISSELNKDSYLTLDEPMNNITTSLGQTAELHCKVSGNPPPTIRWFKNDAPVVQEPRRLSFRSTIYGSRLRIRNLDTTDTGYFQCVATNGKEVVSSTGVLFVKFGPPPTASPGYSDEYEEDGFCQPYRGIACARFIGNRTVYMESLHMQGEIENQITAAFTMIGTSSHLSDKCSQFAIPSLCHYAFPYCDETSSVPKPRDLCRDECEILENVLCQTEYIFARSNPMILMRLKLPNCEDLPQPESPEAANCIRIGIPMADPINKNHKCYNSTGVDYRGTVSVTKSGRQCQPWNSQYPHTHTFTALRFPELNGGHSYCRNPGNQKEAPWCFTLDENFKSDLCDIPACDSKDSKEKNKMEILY
# Description: (A) Shown are Biacore X100 sensorgrams obtained for the binding of each Fab to hFc-hROR1 captured by anti-human Fcγ antibody immobilized on CM5 chip after instantaneous background depletion. Fabs were injected at five different concentrations with the highest concentration indicated in table (B), one of the five concentrations was tested in duplicates. The equilibrium dissociation constant (Kd) was calculated from koff/kₒₙ (kₒₙ, association rate constant; koff, dissociation rate constant).
# Surface plasmon resonance: Surface plasmon resonance for the measurement of the affinities of all Fabs to hFc-hROR1 and for epitope mapping studies were performed on a Biacore X100 instrument using Biacore reagents and software (GE Healthcare, Piscataway, N.J.). Anti-Human IgG (Fc) antibody was immobilized on a CM5 sensor chip following the instruction of Human Antibody Capture Kit (GE Healthcare, Piscataway, N.J.). The sensor chip included an empty flow cell for instantaneous background depletion. All binding assays used 1×HBS-EP+ running buffer (10 mM HEPES, 150 mM NaCl, 3 mM EDTA (pH 7.4), and 0.05% (v/v) Surfactant P20) and a flow rate of […]. […] The sensor chip was regenerated with […] from the Human Antibody Capture Kit without any loss of binding capacity. Calculation of association (kₒₙ) and dissociation (koff) rate constants was based on a 1:1 Langmuir binding model. The equilibrium dissociation constant (Kd) was calculated from koff/kₒₙ. For epitope mapping studies, each Fab was prepared at 500 nM alone in 1×HBS-EP+ running buffer and then injected in order as indicated in FIG. 5.
# [4] = biological target: T9, hFc-hROR2 (extracellular domain of human ROR2 fused to the Fc domain of human IgG1) (human, UniProt Q01974 34-403); assay: ELISA as for hFc-hROR1; third bar series, keyed 'hFc-hROR1' a second time on the sheet, taken as hFc-hROR2 by legend paragraph 27
# T9 construct: extracellular domain; not shown: Fc domain of human IgG1
# T9 sequence (Q01974 34-403): as the sequence (Q01974 34-403) above
# Description: as §1, §2
# [5] = biological target: human ROR1, full length, on cells (human, UniProt Q01973 30-937); assay: cell-based or functional assay
# human ROR1, full length, on cells, sequence (Q01973 30-937): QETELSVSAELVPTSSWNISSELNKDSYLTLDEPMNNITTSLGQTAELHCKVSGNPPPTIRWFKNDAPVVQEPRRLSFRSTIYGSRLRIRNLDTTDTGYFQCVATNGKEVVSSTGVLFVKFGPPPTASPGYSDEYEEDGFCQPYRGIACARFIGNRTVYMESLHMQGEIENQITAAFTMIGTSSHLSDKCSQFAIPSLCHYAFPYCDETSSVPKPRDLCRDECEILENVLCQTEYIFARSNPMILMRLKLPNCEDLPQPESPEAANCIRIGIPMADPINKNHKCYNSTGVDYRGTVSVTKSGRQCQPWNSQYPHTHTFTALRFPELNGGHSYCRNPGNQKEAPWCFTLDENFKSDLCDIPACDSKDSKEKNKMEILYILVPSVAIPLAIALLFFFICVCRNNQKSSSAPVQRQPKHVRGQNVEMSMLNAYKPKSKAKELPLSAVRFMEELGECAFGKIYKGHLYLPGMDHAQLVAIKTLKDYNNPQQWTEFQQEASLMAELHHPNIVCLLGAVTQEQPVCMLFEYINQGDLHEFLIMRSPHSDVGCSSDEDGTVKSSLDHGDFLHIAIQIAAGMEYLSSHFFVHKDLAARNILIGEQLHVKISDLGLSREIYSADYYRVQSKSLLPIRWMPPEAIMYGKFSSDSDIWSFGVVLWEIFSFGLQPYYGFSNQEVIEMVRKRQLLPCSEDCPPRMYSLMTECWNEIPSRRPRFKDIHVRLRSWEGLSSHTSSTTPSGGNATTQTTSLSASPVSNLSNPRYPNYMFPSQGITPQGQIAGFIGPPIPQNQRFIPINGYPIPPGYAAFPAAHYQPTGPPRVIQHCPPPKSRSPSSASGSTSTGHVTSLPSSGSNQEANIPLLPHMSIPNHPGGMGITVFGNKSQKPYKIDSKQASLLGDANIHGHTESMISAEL
binder,measurement,setting,value
B1,binding result,[1],no binding (tested: about 500 ng/ml)
B2,binding result,[1],no binding (tested: about 500 ng/ml)
B3,binding result,hROR2,no binding (tested: 1000 ng/100 µL)
same,binding result,[2],no binding (tested: 100 ng/50 µL)
same,binding result,Ig,no binding
same,binding result,Fr,no binding
same,binding result,Kr,no binding
same,binding result,Fr + Ki,no binding
same,Kd,[3],240 nM
same,koff,[3],0.0592 s⁻¹
same,kon,[3],247000 M⁻¹ s⁻¹
same,binding result,[4],no binding (tested: 100 ng/50 µL)
B4,IC50 values on 697 cells (in vitro cell killing),[5],0.0981 µg/mL
B5,IC50 values on 697 cells (in vitro cell killing),[5],0.0917 µg/mL
B6,IC50 values on 697 cells (in vitro cell killing),[5],0.106 µg/mL
B7,IC50 values on 697 cells (in vitro cell killing),[5],0.0706 µg/mL
B8,IC50 values on 697 cells (in vitro cell killing),[5],0.164 µg/mL
B9,IC50 values on 697 cells (in vitro cell killing),[5],0.0939 µg/mL
B10,binding result,[1],no binding (tested: about 500 ng/ml)

# From patent publication US20220153839A1 (NBE THERAPEUTICS, published 2022)
